Values joined by “and” are separate entries in the source; they are usually repeats but may differ in a detail not shown here. Equal values may be shown once.

In one data set the test system is T1, Crosstide (GRPRTSSFAEG).
T1 sequence: GRPRTSSFAEG

The next data set relates to T2, KPRTSSF.
T2 sequence: KPRTSSF

A further data set relates to T3, PRTSSF.
T3 sequence: PRTSSF

The subject of a further data set is T4, RPKTSSF.
T4 sequence: RPKTSSF

Another data set deals with T5, RPRAATF.
T5 sequence: RPRAATF

The test system of the next data set is T6, RPRTSAF.
T6 sequence: RPRTSAF

A further data set relates to T7, RPRTSSA.
T7 sequence: RPRTSSA

The test system of a further data set is T8, RPRTSSE.
T8 sequence: RPRTSSE

Another data set concerns T9, RPRTSSF.
T9 sequence: RPRTSSF

The subject of another data set is T10, RPRTSSK.
T10 sequence: RPRTSSK

For the next data set, the system named is T11, RPRTSSL.
T11 sequence: RPRTSSL

The next data set relates to T12, RPRTSSV.
T12 sequence: RPRTSSV

Another data set relates to T13, RPRTSS.
T13 sequence: RPRTSS

The subject of a further data set is T14, RPRTSTF.
T14 sequence: RPRTSTF

On to GST-PKBα, for which the “kinase activity toward peptide (30 µM), relative to peptide 1 (Crosstide)” value in the data set on Crosstide (GRPRTSSFAEG) is 100%; in the data set with KPRTSSF it was 6%; with PRTSSF, under 1%; with RPKTSSF, 26%; with RPRAATF, 55%; in the data set with RPRTSAF it was under 1%. Also, the kinase activity toward peptide (30 µM), relative to peptide 1 (Crosstide) with RPRTSSA was 26%; with RPRTSSE it was 21%; in the data set on RPRTSSF, 160%; with RPRTSSK it was 48%; with RPRTSSL, 69%; in the data set with RPRTSSV it was 67%. Further, the kinase activity toward peptide (30 µM), relative to peptide 1 (Crosstide) was under 1% in the data set on RPRTSS and 208% with RPRTSTF.

With GST-SGK2α[S356D], the kinase activity toward peptide (30 µM), relative to peptide 1 (Crosstide) in the data set on Crosstide (GRPRTSSFAEG) was 100%; in the data set with KPRTSSF, under 1%; in the data set on PRTSSF, under 1%; in the data set on RPKTSSF, 8%; with RPRAATF it was 61%; in the data set on RPRTSAF, under 1%. In addition, the kinase activity toward peptide (30 µM), relative to peptide 1 (Crosstide) was 82% in the data set with RPRTSSA; 34% in the data set on RPRTSSE; 182% in the data set on RPRTSSF; 128% with RPRTSSK; 185% in the data set on RPRTSSL; 124% in the data set with RPRTSSV. Moreover, the kinase activity toward peptide (30 µM), relative to peptide 1 (Crosstide) with RPRTSS was determined as 8%; with RPRTSTF, 192%.

As to GST-ΔN-SGK3[S419D], the kinase activity toward peptide (30 µM), relative to peptide 1 (Crosstide) in the data set on Crosstide (GRPRTSSFAEG) is 100%; with KPRTSSF, under 1%; in the data set on PRTSSF, under 1%; in the data set with RPKTSSF it was 48%; in the data set on RPRAATF it was 56%; in the data set on RPRTSAF it was under 1%. Also, the kinase activity toward peptide (30 µM), relative to peptide 1 (Crosstide) was 123% in the data set on RPRTSSA; 67% with RPRTSSE; 137% with RPRTSSF; 200% in the data set with RPRTSSK; 113% in the data set on RPRTSSL; 139% in the data set on RPRTSSV. Besides, the kinase activity toward peptide (30 µM), relative to peptide 1 (Crosstide) in the data set with RPRTSS was found to be 18%; with RPRTSTF, 156%.

Turning to GST-ΔN-SGK(61-431)[S422D], the “kinase activity toward peptide (30 µM), relative to peptide 1 (Crosstide)” value was 100% in the data set with Crosstide (GRPRTSSFAEG); 2% and < 1% with KPRTSSF; under 1% in the data set with PRTSSF; under 1% in the data set on RPRTSAF; 154% and 135% with RPRTSSF; 5.1% and 10% in the data set with RPRTSS.

The values above are taken from patent US7083511.
